Reference: paper doi:10.1101/2025.01.14.633037

Assay: FRET or BRET; DAmFRET: mEos3.1 fusions expressed in S. cerevisiae, galactose induction 20 hr with 100 uM MG132, partial photoconversion of mEos3.1, flow cytometry; AmFRET between copies of the same protein against its intracellular concentration (approximately 2 to 200 uM)

Substance: MBP fused to mEos3.1 and poly-TA (28 residues, two continuous TA tracts of length 12)
- fold increase of Csat against poly-TA without the solubility tag: > 10 fold
